Earlier results on one substance are cited in article PMC10530976.

The target of the data set is Kv1.2 (UniProt P16389).
UniProt P16389, sequence (P16389 whole entry): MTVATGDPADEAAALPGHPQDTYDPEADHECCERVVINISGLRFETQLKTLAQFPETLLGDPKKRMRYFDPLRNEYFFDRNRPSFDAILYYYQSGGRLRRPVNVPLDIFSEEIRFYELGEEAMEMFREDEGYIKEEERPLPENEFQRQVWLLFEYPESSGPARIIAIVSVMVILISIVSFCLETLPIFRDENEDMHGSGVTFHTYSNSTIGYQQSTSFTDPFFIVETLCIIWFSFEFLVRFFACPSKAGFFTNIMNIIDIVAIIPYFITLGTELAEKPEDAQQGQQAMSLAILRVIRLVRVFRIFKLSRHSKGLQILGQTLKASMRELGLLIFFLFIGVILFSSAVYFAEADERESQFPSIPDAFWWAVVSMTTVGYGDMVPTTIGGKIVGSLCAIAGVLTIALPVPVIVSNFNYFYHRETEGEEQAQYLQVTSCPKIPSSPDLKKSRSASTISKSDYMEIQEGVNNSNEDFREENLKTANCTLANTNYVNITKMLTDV

As for OSK2 (from UniProt P83244), the Kd is 5.97 nM.
